B1: full length human PR55α fused to the GAL4 DNA binding domain (other)
chain: MAGAGGGNDIQWCFSQVKGAVDDDVAEADIISTVEFNHSGELLATGDKGGRVVIFQQEQENKIQSHSRGEYNVYSTFQSHEPEFDYLKSLEIEEKINKIRWLPQKNAAQFLLSTNDKTIKLWKISERDKRPEGYNLKEEDGRYRDPTTVTTLRVPVFRPMDLMVEASPRRIFANAHTYHINSISINSDYETYLSADDLRINLWHLEITDRSFNIVDIKPANMEELTEVITAAEFHPNSCNTFVYSSSKGTIRLCDMRASALCDRHSKLFEEPEDPSNRSFFSEIISSISDVKFSHSGRYMMTRDYLSVKIWDLNMENRPVETYQVHEYLRSKLCSLYENDCIFDKFECCWNGSDSVVMTGSYNNFFRMFDRNTKRDITLEASRENNKPRTVLKPRKVCASGKRKKDEISVDSLDFNKKILHTAWHPKENIIAVATTNNLYIFQDKVN
B2: PP2Ac^100-309 fused to the GAL4 DNA binding domain (enzyme)
chain: LVALKVRYRERITILRGNHESRQITQVYGFYDECLRKYGNANVWKYFTDLFDYLPLTALVDGQIFCLHGGLSPSIDTLDHIRALDRLQEVPHEGPMCDLLWSDPDDRGGWGISPRGAGYTFGQDISETFNHANGLTLVSRAHQLVMEGYNWCHDRNVVTIFSAPNYCYRCGNQAAIMELDDTLKYSFLQFDPAPRRGEPHVTRRTPDYFL
B3: GAL4 transactivation domain alone (empty vector pGAD424) (other)
chain: ANFNQSGNIADSSLSFTFTNSSNGPNLITTQTNSQALSQPIASSNVHDNFMNNEITASKIDDGNNSKPLSPGWTDQTAYNAFGITTGMFNTTTMDDVYNYLFDDEDTPPNPKKE
B4: PP2Ac^150-309 fused to the GAL4 DNA binding domain (enzyme)
chain: FDYLPLTALVDGQIFCLHGGLSPSIDTLDHIRALDRLQEVPHEGPMCDLLWSDPDDRGGWGISPRGAGYTFGQDISETFNHANGLTLVSRAHQLVMEGYNWCHDRNVVTIFSAPNYCYRCGNQAAIMELDDTLKYSFLQFDPAPRRGEPHVTRRTPDYFL

What was measured:
[1] = molecular target: full length human eRF1 fused to the GAL4 transactivation domain (yeast; human, UniProt P62495); assay: yeast two-hybrid: His growth (HF7c) and colony colour in filter β-Gal assay (SFY526)
Text: PCR products encoding three N-terminal (PP2Ac^50-309, PP2Ac^100-309 and PP2Ac^150-309) and three C-terminal (PP2Ac^1-259, PP2Ac^1-209 and PP2Ac^1-159) truncations of PP2Acα are subcloned into pGBT9 in-frame with the GAL4 DNA binding domain. Control plasmids encoding wild-type GAL4 protein (pCL1), SV40 large T antigen (pTD1), p53 (pVA3) and lamin C (pLAM5'), the latter three fused to the appropriate domains of GAL4, are provided by the manufacturer and used for control interactions. Expression constructs are transformed into *S. cerevisiae* host strains SFY526 (lacZ reporter gene) and HF7c (lacZ and HIS3 reporter genes). […] The expression of the lacZreporter gene is determined by measuring β-galactosidase activity using 5-bromo-4-chloro-3-indolyl-β-D-galactoside [X-Gal] and O-nitrophenyl-β-D-galactoside [ONPG] as substrates, whereas the expression of HIS3 reporter gene is assessed by monitoring growth on triple selective SD medium lacking leucine, tryptophan and histidine. All media and reagents are prepared according to the manufacturer's recommendations. Transcriptional activation of reporter genes driven by wild-type GAL4 protein or brought about by the interaction between SV40 largeT and p53 are used as positive controls. To exclude intrinsic transcriptional activation capacity or non-specific binding of either molecules to unrelated proteins, cotransformations with the empty vector or vector encoding human lamin C fused to the opposite domain of GAL4 are used as negative controls.

[2] = molecular target: full length human PP2Acα fused to the GAL4 DNA binding domain (yeast; human); assay: yeast two-hybrid, empty vector control: His growth (HF7c) and filter β-Gal colour (SFY526)
[3] = molecular target: PP2Ac^50-309 fused to the GAL4 DNA binding domain (yeast; human, UniProt P04386); assay: as above
[4] = molecular target: B2; assay: as above
[5] = molecular target: B4; assay: as above
[6] = molecular target: PP2Ac^1-259 fused to the GAL4 DNA binding domain (yeast; human, UniProt P04386); assay: as above
[7] = molecular target: PP2Ac^1-209 fused to the GAL4 DNA binding domain (yeast; human, UniProt P04386); assay: as above
[8] = molecular target: PP2Ac^1-159 fused to the GAL4 DNA binding domain (yeast; human, UniProt P04386); assay: as above
[9] = molecular target: full length human PR65α fused to the GAL4 DNA binding domain (yeast; human); assay: as above
[10] = molecular target: B1; assay: as above

Measured: binding result

B1
no binding: [1]

B2
no binding: [1]

B3
not listed: [1]
no binding: all other assays above

B4
no binding: [1]
